Reference: the supplement of paper PMC10065799, “High-throughput profiling of sequence recognition by tyrosine kinases and SH2 domains using bacterial peptide display” (eLife, 2023)

Key:
Grb2 SH2 = Grb2 SH2 (UniProt P62993); experiment: SH2 binding enrichment of the phosphorylated peptide, bacterial display (enrichment ratio); higher = better substrate or ligand; peptides without Tyr show the background
SHP2-C SH2 = experiment: as above
c-Src SH2 = experiment: as above
c-Src = experiment: phosphorylation enrichment, bacterial display (enrichment ratio); higher = better substrate or ligand; peptides without Tyr show the background
Jak2 = Jak2 (UniProt O60674); experiment: as above
Chain of Jak2 (O60674 whole entry, looked up): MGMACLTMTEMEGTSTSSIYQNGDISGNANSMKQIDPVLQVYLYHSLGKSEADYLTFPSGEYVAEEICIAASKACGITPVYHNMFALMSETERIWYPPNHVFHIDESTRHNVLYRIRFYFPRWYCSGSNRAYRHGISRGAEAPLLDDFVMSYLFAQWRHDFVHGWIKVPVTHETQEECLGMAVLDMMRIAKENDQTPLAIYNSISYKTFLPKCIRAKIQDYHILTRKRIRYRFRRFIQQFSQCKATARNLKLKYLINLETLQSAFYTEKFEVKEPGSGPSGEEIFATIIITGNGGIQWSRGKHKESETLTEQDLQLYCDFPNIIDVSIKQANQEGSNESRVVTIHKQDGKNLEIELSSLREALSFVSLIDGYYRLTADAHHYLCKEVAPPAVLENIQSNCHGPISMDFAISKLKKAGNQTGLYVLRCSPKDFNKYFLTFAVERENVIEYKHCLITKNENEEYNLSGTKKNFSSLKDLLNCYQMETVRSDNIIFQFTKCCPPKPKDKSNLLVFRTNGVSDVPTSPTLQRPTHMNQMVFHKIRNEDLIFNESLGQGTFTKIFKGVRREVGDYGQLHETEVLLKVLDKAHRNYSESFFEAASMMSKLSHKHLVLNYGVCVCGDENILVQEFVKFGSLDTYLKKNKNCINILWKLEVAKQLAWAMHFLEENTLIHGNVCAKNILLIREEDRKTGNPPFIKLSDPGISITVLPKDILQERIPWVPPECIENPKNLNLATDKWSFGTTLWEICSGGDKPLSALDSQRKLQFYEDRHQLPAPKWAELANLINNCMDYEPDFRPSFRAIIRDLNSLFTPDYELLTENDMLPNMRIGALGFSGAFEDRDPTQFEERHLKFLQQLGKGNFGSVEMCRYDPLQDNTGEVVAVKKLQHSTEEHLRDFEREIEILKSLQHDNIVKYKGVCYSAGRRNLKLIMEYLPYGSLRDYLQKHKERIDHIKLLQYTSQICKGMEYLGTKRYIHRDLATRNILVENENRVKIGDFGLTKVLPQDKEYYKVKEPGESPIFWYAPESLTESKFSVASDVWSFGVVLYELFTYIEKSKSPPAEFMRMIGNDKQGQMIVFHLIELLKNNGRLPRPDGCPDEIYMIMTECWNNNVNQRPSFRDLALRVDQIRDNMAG

EPHB1 = EPHB1 (UniProt P54762); experiment: as above
Chain of EPHB1 (P54762 whole entry, looked up): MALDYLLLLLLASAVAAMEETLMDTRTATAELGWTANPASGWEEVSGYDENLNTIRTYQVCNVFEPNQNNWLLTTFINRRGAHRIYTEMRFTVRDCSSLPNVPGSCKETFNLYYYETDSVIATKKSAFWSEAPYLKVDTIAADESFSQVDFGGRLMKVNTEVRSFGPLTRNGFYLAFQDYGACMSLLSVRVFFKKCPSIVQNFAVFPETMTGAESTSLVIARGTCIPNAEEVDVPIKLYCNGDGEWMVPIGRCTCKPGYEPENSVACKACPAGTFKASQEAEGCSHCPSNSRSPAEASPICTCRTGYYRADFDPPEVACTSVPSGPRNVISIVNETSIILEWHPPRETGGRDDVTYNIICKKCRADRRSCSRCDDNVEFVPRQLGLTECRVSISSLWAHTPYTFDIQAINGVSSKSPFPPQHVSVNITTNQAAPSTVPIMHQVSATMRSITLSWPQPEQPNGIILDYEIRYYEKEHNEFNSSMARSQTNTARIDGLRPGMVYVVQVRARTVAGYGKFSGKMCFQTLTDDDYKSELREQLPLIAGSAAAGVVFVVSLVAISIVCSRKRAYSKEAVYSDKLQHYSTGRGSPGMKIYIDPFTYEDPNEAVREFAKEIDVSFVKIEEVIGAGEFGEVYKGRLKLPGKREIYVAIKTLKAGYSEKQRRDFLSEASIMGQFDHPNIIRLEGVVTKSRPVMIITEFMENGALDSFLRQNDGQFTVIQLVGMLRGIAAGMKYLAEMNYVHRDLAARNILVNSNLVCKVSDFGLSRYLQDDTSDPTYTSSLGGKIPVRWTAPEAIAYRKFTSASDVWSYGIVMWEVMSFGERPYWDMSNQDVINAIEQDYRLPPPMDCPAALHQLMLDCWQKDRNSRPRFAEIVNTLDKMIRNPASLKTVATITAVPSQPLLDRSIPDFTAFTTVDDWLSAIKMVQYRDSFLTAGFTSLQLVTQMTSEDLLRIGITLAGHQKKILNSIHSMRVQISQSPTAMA

Fes = Fes (UniProt P07332); experiment: as above
Chain of Fes (P07332 whole entry, looked up): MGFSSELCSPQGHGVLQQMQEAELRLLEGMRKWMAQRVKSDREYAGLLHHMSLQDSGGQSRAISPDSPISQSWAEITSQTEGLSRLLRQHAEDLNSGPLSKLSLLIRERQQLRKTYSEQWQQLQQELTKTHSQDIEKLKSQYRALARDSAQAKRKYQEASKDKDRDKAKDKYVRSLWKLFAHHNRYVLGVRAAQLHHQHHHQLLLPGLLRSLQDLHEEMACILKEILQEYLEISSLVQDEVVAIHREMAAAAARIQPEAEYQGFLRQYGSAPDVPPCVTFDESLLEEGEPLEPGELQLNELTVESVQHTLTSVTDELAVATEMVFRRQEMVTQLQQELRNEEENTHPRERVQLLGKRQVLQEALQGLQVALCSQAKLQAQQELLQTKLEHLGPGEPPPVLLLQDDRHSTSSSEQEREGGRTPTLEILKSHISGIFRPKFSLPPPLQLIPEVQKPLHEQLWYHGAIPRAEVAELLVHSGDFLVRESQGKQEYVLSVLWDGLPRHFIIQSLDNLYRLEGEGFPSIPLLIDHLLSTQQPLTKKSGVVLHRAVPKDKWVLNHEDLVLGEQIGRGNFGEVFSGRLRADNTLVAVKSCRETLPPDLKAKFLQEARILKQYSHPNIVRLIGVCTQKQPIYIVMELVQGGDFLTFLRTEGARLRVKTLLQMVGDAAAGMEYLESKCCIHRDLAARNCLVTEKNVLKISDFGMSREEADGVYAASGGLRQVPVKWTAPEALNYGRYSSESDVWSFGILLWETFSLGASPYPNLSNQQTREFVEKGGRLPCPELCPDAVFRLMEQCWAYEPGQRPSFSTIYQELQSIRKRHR

Fyn = Fyn (UniProt P06241); experiment: as above
Chain of Fyn (P06241 whole entry, looked up): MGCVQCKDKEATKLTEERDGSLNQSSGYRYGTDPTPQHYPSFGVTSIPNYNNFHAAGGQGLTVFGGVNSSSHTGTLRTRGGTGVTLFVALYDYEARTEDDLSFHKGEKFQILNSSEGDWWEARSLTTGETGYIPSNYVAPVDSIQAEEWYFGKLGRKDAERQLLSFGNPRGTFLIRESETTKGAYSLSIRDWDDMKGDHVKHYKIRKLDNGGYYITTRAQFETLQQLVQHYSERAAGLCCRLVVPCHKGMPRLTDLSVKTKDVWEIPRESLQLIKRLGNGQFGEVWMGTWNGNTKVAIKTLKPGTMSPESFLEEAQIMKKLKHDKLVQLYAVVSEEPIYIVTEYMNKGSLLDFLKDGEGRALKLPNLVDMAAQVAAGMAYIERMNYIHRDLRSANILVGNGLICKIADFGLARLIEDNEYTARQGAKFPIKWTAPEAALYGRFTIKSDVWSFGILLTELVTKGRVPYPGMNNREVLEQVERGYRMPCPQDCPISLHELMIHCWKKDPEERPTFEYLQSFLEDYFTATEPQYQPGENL

AncSZ = experiment: as above
Hck = Hck (UniProt P08631); experiment: as above
Chain of Hck (P08631 whole entry, looked up): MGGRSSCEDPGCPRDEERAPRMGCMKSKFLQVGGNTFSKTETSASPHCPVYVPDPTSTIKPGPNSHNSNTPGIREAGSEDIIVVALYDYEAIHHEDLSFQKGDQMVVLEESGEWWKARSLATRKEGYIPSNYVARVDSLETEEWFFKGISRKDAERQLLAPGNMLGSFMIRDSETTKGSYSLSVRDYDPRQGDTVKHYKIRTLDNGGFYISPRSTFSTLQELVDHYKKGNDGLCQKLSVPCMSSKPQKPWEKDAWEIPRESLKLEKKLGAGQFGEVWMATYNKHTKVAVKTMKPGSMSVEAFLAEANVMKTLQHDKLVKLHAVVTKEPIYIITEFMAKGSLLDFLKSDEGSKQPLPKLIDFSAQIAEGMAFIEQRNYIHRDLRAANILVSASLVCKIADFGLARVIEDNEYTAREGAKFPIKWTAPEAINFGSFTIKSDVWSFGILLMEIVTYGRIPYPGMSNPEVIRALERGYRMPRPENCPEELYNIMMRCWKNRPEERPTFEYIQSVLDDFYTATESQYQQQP

MERTK = MERTK (UniProt Q12866); experiment: as above
Fer (mouse) = experiment: as above
c-Abl (mouse) = experiment: as above
EPHB2 = EPHB2 (UniProt P29323); experiment: as above
Chain of EPHB2 (P29323 whole entry, looked up): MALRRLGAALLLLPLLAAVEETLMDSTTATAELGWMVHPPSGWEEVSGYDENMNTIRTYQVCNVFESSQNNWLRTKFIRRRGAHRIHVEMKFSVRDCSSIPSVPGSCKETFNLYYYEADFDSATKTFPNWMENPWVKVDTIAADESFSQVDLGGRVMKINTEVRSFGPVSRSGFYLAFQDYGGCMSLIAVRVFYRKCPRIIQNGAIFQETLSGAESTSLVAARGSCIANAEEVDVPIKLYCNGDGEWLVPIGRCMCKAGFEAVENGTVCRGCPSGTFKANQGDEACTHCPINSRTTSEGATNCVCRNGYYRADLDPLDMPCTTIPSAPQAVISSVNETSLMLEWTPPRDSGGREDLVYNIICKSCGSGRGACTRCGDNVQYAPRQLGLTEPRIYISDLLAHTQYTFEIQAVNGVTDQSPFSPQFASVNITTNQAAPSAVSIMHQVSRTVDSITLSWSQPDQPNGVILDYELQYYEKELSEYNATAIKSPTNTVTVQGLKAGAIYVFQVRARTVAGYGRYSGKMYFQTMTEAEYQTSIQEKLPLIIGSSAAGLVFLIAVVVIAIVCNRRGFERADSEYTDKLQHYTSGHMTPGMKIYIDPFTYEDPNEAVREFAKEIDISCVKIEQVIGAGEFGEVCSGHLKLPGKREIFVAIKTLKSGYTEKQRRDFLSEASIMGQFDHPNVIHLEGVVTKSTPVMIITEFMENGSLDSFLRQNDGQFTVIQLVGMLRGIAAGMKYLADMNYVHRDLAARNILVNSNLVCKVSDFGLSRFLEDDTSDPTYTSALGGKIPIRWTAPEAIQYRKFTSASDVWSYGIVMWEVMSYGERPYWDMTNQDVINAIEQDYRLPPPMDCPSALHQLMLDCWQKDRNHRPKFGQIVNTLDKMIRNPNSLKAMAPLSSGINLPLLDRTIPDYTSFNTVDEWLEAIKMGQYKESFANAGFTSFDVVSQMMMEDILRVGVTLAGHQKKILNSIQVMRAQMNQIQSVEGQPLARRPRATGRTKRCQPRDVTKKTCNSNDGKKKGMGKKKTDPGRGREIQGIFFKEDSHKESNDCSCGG

FGFR1 = FGFR1 (UniProt P11362); experiment: as above
FGFR3 = FGFR3 (UniProt P22607); experiment: as above
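Wherever SH2 binding enrichment of the phosphorylated peptide, bacterial display is given: peptide library displayed on the E. coli surface as eCPX fusions, selected cells deep-sequenced, score is each peptide's frequency after selection divided by its frequency in the input.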
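Wherever phosphorylation enrichment, bacterial display is given: 11-residue human phosphosite peptides and single-mutation variants displayed on the E. coli surface, counted by deep sequencing, each peptide's frequency after selection divided by its frequency in the unselected input library; frequency after pTyr selection over input frequency; kinase dosed for 20-30% of maximal phosphorylation in three min.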

Row | Sequence | SH2 binding enrichment (Grb2 SH2) | SH2 binding enrichment (SHP2-C SH2) | SH2 binding enrichment (c-Src SH2) | phosphorylation enrichment (c-Src) | phosphorylation enrichment (Jak2) | phosphorylation enrichment (EPHB1) | phosphorylation enrichment (Fes) | phosphorylation enrichment (Fyn) | phosphorylation enrichment (AncSZ) | phosphorylation enrichment (Hck) | phosphorylation enrichment (MERTK) | phosphorylation enrichment (Fer (mouse)) | phosphorylation enrichment (c-Abl (mouse)) | phosphorylation enrichment (EPHB2) | phosphorylation enrichment (FGFR1) | phosphorylation enrichment (FGFR3)
1 | MDNQEYKDAYK [BRDT_Y331] | 0.814 | 1.05 | 0.499 | 0.368 | 0.901 | 0.546 | 1.12 | 0.417 | 0.932 | 0.474 | 0.445 | 0.456 | 0.677 | 0.402 | 0.485 | 0.652
2 | MFCASYDTKQE [F10_Y407_G406S] | 0.774 | 0.749 | 0.733 | 0.511 | 0.986 | 0.536 | 1.17 | 0.558 | 1.01 | 0.554 | 0.552 | 0.571 | 0.731 | 0.717 | 0.561 | 0.746
3 | MFRAGYDTKQE [F10_Y407_C404R] | 0.796 | 0.872 | 0.5 | 0.332 | 0.589 | 0.475 | 0.761 | 0.395 | 0.671 | 0.383 | 0.335 | 0.391 | 0.497 | 0.447 | 0.379 | 0.448
4 | MGRVKYGAFIN [GLB1_Y485_N484K_YF] | 1.62 | 1.59 | 1.23 | 0.458 | 0.528 | 0.368 | 0.701 | 0.382 | 0.566 | 0.439 | 0.443 | 0.348 | 0.532 | 0.376 | 0.402 | 0.453
5 | MKKKIYAMGGG [GAN_Y424] | 1.15 | 0.979 | 0.679 | 0.393 | 0.39 | 0.335 | 0.465 | 0.297 | 0.397 | 0.414 | 0.432 | 0.389 | 0.519 | 0.302 | 0.376 | 0.341
6 | MKSIKYMDKEV [CCDC60_Y41_I46V] | 0.742 | 0.515 | 0.413 | 0.375 | 0.567 | 0.325 | 0.554 | 0.344 | 0.664 | 0.399 | 0.334 | 0.355 | 0.492 | 0.316 | 0.437 | 0.545
7 | MNPPPYSQFLS [FGF23_Y154] | 0.742 | 0.489 | 0.541 | 1.38 | 0.687 | 0.467 | 0.706 | 0.478 | 0.585 | 0.511 | 0.543 | 0.711 | 0.536 | 0.44 | 0.508 | 0.567
8 | MPIPMYDASQA [CARMIL1_Y637] | 0.887 | 0.75 | 0.537 | 0.46 | 0.717 | 0.867 | 0.73 | 0.643 | 0.751 | 0.552 | 0.566 | 0.565 | 0.824 | 1.01 | 0.595 | 0.629
9 | MPIPMYDGSQA [CARMIL1_Y637_A639G] | 0.746 | 0.53 | 0.452 | 0.44 | 0.963 | 1.1 | 0.777 | 0.52 | 0.623 | 0.53 | 0.447 | 0.402 | 0.639 | 0.634 | 0.434 | 0.532
10 | NAPNSYGRRPS [CDKN2A_Y44_I49S] | 0.774 | 0.533 | 0.747 | 0.49 | 0.711 | 0.481 | 0.849 | 0.582 | 0.805 | 0.512 | 0.499 | 0.588 | 0.63 | 0.593 | 0.46 | 0.541
11 | NFGTNYRVGSS [CPO_Y278_K273N_YF] | 0.88 | 0.634 | 0.418 | 0.442 | 0.534 | 0.417 | 0.716 | 0.43 | 0.602 | 0.482 | 0.42 | 0.429 | 0.525 | 0.515 | 0.508 | 0.424
12 | NIQKKYFRAIL [CHD7_Y1217_YF] | 0.96 | 0.838 | 0.566 | 0.335 | 0.718 | 0.37 | 0.655 | 0.352 | 0.625 | 0.421 | 0.458 | 0.399 | 0.43 | 0.383 | 0.436 | 0.433
13 | NIWDSYTTNKV [GNB1_Y85_I80N] | 0.983 | 0.709 | 0.425 | 0.437 | 0.663 | 0.515 | 0.9 | 0.416 | 1 | 0.497 | 0.387 | 0.414 | 0.656 | 0.488 | 0.497 | 0.658
14 | NKFTTYLPWLP [C9orf24_Y126_R129W_YF] | 1.19 | 0.89 | 0.815 | 4.54 | 1.75 | 3.63 | 1.06 | 5.73 | 1.04 | 8.27 | 1.4 | 6.84 | 1.6 | 6.61 | 1.43 | 1.25
15 | NKPTVCGVSPN [ABL1_Y226_Y226C] | 0.952 | 0.841 | 0.559 | 0.5 | 0.759 | 0.476 | 0.919 | 0.439 | 0.655 | 0.404 | 0.467 | 0.441 | 0.996 | 0.536 | 0.526 | 0.589
16 | NKYTTYLPRLP [C9orf24_Y126] | 0.905 | 0.776 | 0.991 | 0.616 | 0.706 | 0.454 | 0.684 | 0.51 | 0.575 | 0.714 | 0.483 | 0.38 | 0.625 | 0.386 | 0.402 | 0.418
17 | NRDNTYNRVSE [FGA_Y127] | 0.758 | 0.775 | 1.59 | 0.405 | 0.678 | 0.472 | 0.728 | 0.425 | 0.603 | 0.457 | 0.329 | 0.395 | 0.762 | 0.407 | 0.38 | 0.469
18 | NRLTDYFEPLL [BBS10_Y536_YF] | 1.02 | 0.842 | 0.711 | 0.406 | 0.959 | 2.54 | 0.993 | 0.755 | 1.71 | 0.548 | 0.381 | 0.468 | 0.675 | 1.16 | 6.99 | 4.38
19 | NSIGNYFKPWF [DHCR24_Y299_YF] | 1.05 | 5.38 | 0.899 | 0.458 | 7.86 | 8.66 | 0.99 | 0.45 | 1.03 | 0.492 | 4.54 | 0.424 | 8.06 | 5.26 | 1.64 | 1.41

The next lines start with results.

Row | SH2 binding enrichment (Grb2 SH2) | SH2 binding enrichment (SHP2-C SH2) | SH2 binding enrichment (c-Src SH2) | Sequence | phosphorylation enrichment (c-Src) | phosphorylation enrichment (Jak2) | phosphorylation enrichment (EPHB1) | phosphorylation enrichment (Fes) | phosphorylation enrichment (Fyn) | phosphorylation enrichment (AncSZ) | phosphorylation enrichment (Hck) | phosphorylation enrichment (MERTK) | phosphorylation enrichment (Fer (mouse)) | phosphorylation enrichment (c-Abl (mouse)) | phosphorylation enrichment (EPHB2) | phosphorylation enrichment (FGFR1) | phosphorylation enrichment (FGFR3)
20 | 0.785 | 0.468 | 0.467 | MECLPYGSLRD [JAK2_Y934_Y931C] | 1.65 | 1.07 | 0.598 | 1.29 | 0.753 | 1.08 | 0.711 | 0.409 | 0.669 | 0.75 | 0.577 | 0.522 | 0.794
21 | 0.831 | 0.578 | 0.551 | MHFSNYVSKGS [PDGFRA_Y849_D846Y_YF] | 0.384 | 0.489 | 0.604 | 0.578 | 0.495 | 0.522 | 0.457 | 0.381 | 0.367 | 0.406 | 0.439 | 0.394 | 0.565
22 | 0.774 | 0.604 | 0.585 | MKNDLYQTPLH [NFKB1_Y582_R578K] | 1.63 | 0.727 | 0.668 | 0.695 | 1.16 | 1.4 | 4.13 | 1.81 | 2.2 | 5.91 | 1.11 | 0.473 | 0.502
23 | 0.679 | 0.665 | 0.456 | MRAIIYNSSTA [PLEKHA7_Y243_L241I] | 0.447 | 0.765 | 0.473 | 0.838 | 0.509 | 0.812 | 0.501 | 0.47 | 0.528 | 1.04 | 0.609 | 0.554 | 0.623
24 | 1.23 | 5.25 | 0.896 | NFDRVYIYHLR [MYOF_Y1137] | 1.01 | 1.03 | 0.593 | 1.23 | 0.858 | 1.19 | 0.782 | 0.528 | 0.612 | 0.718 | 0.618 | 0.575 | 0.755
25 | 0.782 | 0.787 | 0.456 | NGQALYAACQT [XDH_Y1092_V1091L] | 3.35 | 0.687 | 9.24 | 0.916 | 3.2 | 0.775 | 4.99 | 6.34 | 6.91 | 2.26 | 9.92 | 0.554 | 0.562
26 | 0.681 | 0.551 | 0.399 | NLFIEYPTGSG [IRF2BPL_Y423_K418N] | 0.56 | 0.828 | 0.504 | 1.02 | 0.568 | 1.14 | 0.497 | 0.519 | 0.639 | 0.95 | 0.548 | 0.582 | 0.7
27 | 0.803 | 1.02 | 3.65 | NNPAYYVLEGV [INPPL1_Y987] | 1.63 | 4.89 | 0.764 | 0.997 | 1.65 | 1.15 | 1.11 | 9.04 | 0.525 | 0.711 | 0.69 | 15.9 | 13.1
28 | 0.857 | 0.547 | 0.572 | NQDRTYFERVR [SPEN_Y632_S635R_YF] | 0.567 | 0.601 | 0.473 | 0.648 | 0.419 | 0.607 | 0.812 | 0.377 | 0.401 | 0.538 | 0.411 | 0.421 | 0.522
29 | 1.05 | 0.81 | 0.782 | NTADYYDLYGG [PTPN11_Y63_G60A] | 5.99 | 3.39 | 14.9 | 1.47 | 6.09 | 3.44 | 5.89 | 3.04 | 1.59 | 1.13 | 14.7 | 16.2 | 15.3
30 | 0.952 | 0.781 | 0.544 | NTDETYCIDNE [TUBB2B_Y200] | 0.809 | 1.53 | 0.813 | 1.57 | 0.795 | 1.47 | 0.728 | 0.598 | 0.724 | 0.982 | 0.797 | 0.64 | 1.14
31 | 0.928 | 0.871 | 5.92 | NTGGYYDLYGG [PTPN11_Y63_D61G] | 5.05 | 5.82 | 1.98 | 1.18 | 8.66 | 1.51 | 8.38 | 7.92 | 3.33 | 0.756 | 3.74 | 13.3 | 10.8
32 | 0.59 | 0.766 | 0.743 | NTGVFYDLFGG [PTPN11_Y63_D61V_YF] | 4.82 | 0.958 | 0.609 | 1.12 | 3.21 | 0.99 | 2.84 | 7.01 | 2.86 | 0.797 | 0.986 | 0.455 | 0.638
33 | 0.801 | 0.829 | 0.577 | NTILLYHIMAW [GPR143_Y157_S152N] | 1.27 | 2.07 | 5.65 | 1.62 | 0.8 | 1.52 | 1.56 | 4.42 | 0.89 | 1.25 | 3.9 | 3.19 | 3.15
